The source of these data is patent US8993741B2, “SMNdelta7 degron: novel compositions and methods of use” (The Trustees of the University of Pennsylvania, priority 2009, dated 2015).

For assay [1], the system named is 293T cells. Nature of the assay: Protein stability assay: luciferase activity of Luc-fused constructs after CHX treatment. The class given is cell-based. Particulars: Luc fusion in 293T cells, CHX 0.1 mg/ml, up to 10 hours. The source says:
To construct plasmids expressing Luc-fused proteins, the luciferase gene was cloned into pcDNA3.1 vector at HindIII/KpnI sites, then DNA fragments encoding full-length wild type human SMN, SMNΔ7, several deletion mutants of SMNΔ7, and optiPEST were inserted into the KpnI/XhoI sites. SMNΔ7 mutants with single amino acid change were generated by mutating residues in YG+EMLA to alanine by Quickchange site-directed mutagenesis kit (Stratagene).
Cells (293T cells) were transfected with plasmids expressing various constructs including Luc-SMN, Luc-SMNΔ7, GFP-YG+EMLA or GFP-NS. Forty-eight hours after transfection, the cells were treated with CHX (0.1 mg/ml) for various times as indicated and then assayed for luciferase activity. Luciferase activity at each time point was calculated by comparison to those at time 0, which was set to 100%. Luciferase activities were measured using One-Glo reagent (Promega).
A reporter system that recapitulates the differential stability of full-length SMN and SMNΔ7 and allows quantitative assessment of SMNΔ7's instability determinants was developed. […] Forty-eight hours after transfection, cells were treated with the protein synthesis inhibitor cycloheximide (CHX), and luciferase activity was measured at time intervals of up to 10 hours. […]

Assay [2] concerns 293T cells. In words: Level of HA-tagged SMN proteins, Western blot with anti-HA antibody. The class given is cell-based. Conditions: without MG132 treatment. Here is the method: FIG. 3, comprising FIG. 3A through FIG. 3D, is a series of images depicting the importance of residue S270 for the activity of the SMNΔ7-DEG through YG+EMLA. FIG. 3A is a schematic illustration depicting seven residues in the YG box that were each mutated to alanine, as indicated. […] depicts the results of Western blot analyses using an anti-HA tag antibody directed against HA-tagged SMN, SMNΔ7, and SMNΔ7^S270A expressed in 293T cells treated with DMSO or 10 μM MG132 (MG) for 16 hours. Fusion proteins were monitored by, and Magoh was used as a control. FIG. 3C is a graph depicting the quantification of HA-tagged proteins depicted in FIG. 3B and compared to HA-SMN without MG132 treatment. Protein amount (%) for SMNΔ7, and SMNΔ7^S270A are calculated relative to HA-SMN not treated with MG132, that is arbitrarily set to 100%. The fold change of each fusion protein amount upon MG132 treatment is indicated in red above the column. […]
To identify specific residues in the SMN07-DEG that are important for its activity, mutagenesis of the YG box was performed wherein every second residue was converted to alanine in the context of full-length SMNΔ7 and determined the half-life of each in 293T cells. […] The levels of the tagged SMN proteins were then monitored by Western blots using anti-HA antibody (FIG. 3B).
In general terms: Immunoblotting shows a protein as a band on a membrane.

In assay [3] the test system is S5 cells. In words: Rescue of S5 cell viability after tetracycline depletion of SMN. Format: cell-based, chicken. Conditions: retroviral expression, one week after tetracycline (1 μg/ml). Here is the method:
FIG. 4, comprising FIG. 4A through FIG. 4D, is a series of images depicting the functionality of SMNΔ7^S270A in snRNP assembly and its ability to rescue SMN-deficient cells. FIG. 4 A is a series of panels depicting S5 cells cultured in the presence of tetracycline (1 μg/ml) to deplete endogenous SMN and infected with retroviruses expressing SMN, SMNΔ7, or SMNΔ7^S270A. FIG. 4B is a graph depicting cell growth as in FIG. 4A measured by monitoring the number of live cells at the indicated time points following tetracycline addition. FIG. 4C depicts the results of Western blot analyses of SMN protein in rescued cells (10 days after tetracycline addition). FIG. 4D is a graph depicting SMN complex activity (%) as measured by in vitro snRNP assembly on U4 snRNA in cytoplasmic extracts from rescued cells, using U4ΔSm RNA as a control.
S5 cells were maintained and infected with retroviruses expressing SMN, SMNΔ7, and SMNΔ7^S270A as described (Wang et al., 2001, J. Biol. Chem. 276:9599).
To determine whether SMNΔ7^S270A is a functional SMN protein, a previously established cell system, the S5 cell line, was used to investigate if SMNΔ7^S270A could rescue the viability of SMN-depleted cells. […]

B1: SMNΔ7: SMN protein from exon 7 skipping, lacks C-terminal 16 amino acids and acquires EMLA (protein, listed as Homo sapiens)
chain: MAMSSGGSGGGVPEQEDSVLFRRGTGQSDDSDIWDDTALIKAYDKAVASFKHALKNGDICETSGKPKTTPKRKPAKKNKSQKKNTAASLQQWKVGDKCSAIWSEDGCIYPATIASIDFKRETCVVVYTGYGNREEQNLSDLLSPICEVANNIEQNAQENENESQVSTDESENSRSPGNKSDNIKPKSAPWNSFLPPPPPMPGPRLGPGKPGLKFNGPPPPPPPPPPHLLSCWLPPFPSGPPIIPPPPPICPDSLDDADALGSMLISWYMSGYHTGYYMEMLA
On to B1, for which the “half-life (t1/2)” value in assay [1] was roughly 3 h. In addition, the “amount of HA-tagged protein” value in assay [2] is recorded as “much lower than that of SMN”. In assay [3], the “rescue of viability of SMN-depleted S5 cells” value is “did not”.
